# Results as given in the RNAGym collection of RNA variant scans (doi:10.1093/nar/gkz1192).
# B1: CPEB3 Ribozyme (parent)
# chain: UAACAGGGGGCCACAGCAGAAGCGUUCACGUCGCAGCCCCUGUCAGAUUCUGGUGAAUCUGCGAAUUCUGCUGUAUAUCUC
# Variants of: B1
# Assay: self-cleavage, relative activity (ratio to wild type); higher = more cleavage; in vitro, sequencing
# Outline: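 CPEB3 self-cleaving ribozyme mutant libraries were made by rounds of error-prone PCR, barcoded, and transcribed in vitro with T7 RNA polymerase for 5 hours at 37°C. Cleavage occurred during transcription and a 15 min DNase I step before EDTA stop. RNAs were reverse transcribed with template switching and Illumina-sequenced, with DNA sequencing mapping barcodes to variants. Relative activity is the variant's cleaved/total read fraction divided by wild type's (minimum 5 reads), averaged across three batches.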
row,Variant,self-cleavage
1,A20U U43C,0.29
2,A20U U43A,0.45
3,A20G U76A,1.03
4,A20G U76G,0.99
5,A20G U76C,0.92
6,A20U C39G,0.27
7,A20U C39A,0.21
8,A20U U48C,0.29
9,A20U U48A,0.14
10,A20G U66A,0.33
11,A20G U66C,0.37
12,A20G U66G,0.37
13,A20U A47G,0.33
14,A20U U54A,0.29
15,A20U U54G,0.26
16,A20U U54C,0.31
17,A20U C50A,0.21
18,A20U C81U,0.32
19,A20U C40A,0.23
20,A20U C40U,0.34
21,A20U C40G,0.27
22,A20U G22A,0.2
23,A20U G22U,0.1
24,A20U A65C,0.1

row,Variant,self-cleavage
1,A20U A65G,0.2
2,A20U A64G,0.35
3,A20U A64U,0.26
4,A20U A28U,0.19
5,A20U A28C,0.18
6,A20U A28G,0.22
7,A20U U49A,0.2
8,A20U U49C,0.3
9,A20U U74A,0.54
10,A20U U74C,0.33
11,A20U U74G,0.55
12,A20U C23G,0.3
13,A20U C23U,0.4
14,A20U C23A,0.22
15,A20G U72C,0.84
16,A20G U72G,0.63
17,A20G U72A,0.46
18,A20U G52C,0.27
19,A20U G52A,0.41
20,A20U G52U,0.38
21,A20U C79G,0.37
22,A20U G73A,0.67
23,A20U U26C,0.27
24,A20U U26A,0.34

row,Variant,self-cleavage
1,A20G U78C,0.85
2,A20G U78A,0.79
3,A20U U69A,0.22
4,A20U U69C,0.15
5,A20U U69G,0.21
6,A20U G42U,0.13
7,A20U G42A,0.64
8,A20U U25G,0.15
9,A20U U25C,0.31
10,A20U U25A,0.26
11,A20G U41C,0.89
12,A20G U41G,0.35
13,A20U G53A,0.28
14,A20U A35G,0.87
15,A20U A35U,0.22
16,A20U C62U,0.15
17,A20U U31C,0.26
18,A20U U31G,0.23
19,A20U U31A,0.24
20,A20U U60C,0.19
21,A20U U60G,0.21
22,A20U U60A,0.41
23,A20G U60A,0.35
24,A20G U60C,0.34

row,Variant,self-cleavage
1,A20U G30U,0.24
2,A20G U58C,0.36
3,A20G U58G,0.11
4,A20G U58A,0.27
5,A20U G33C,0.15
6,A20U A21G,0.23
7,A20U A21U,0.29
8,A20U G63A,0.19
9,A20U U51A,0.25
10,A20U U51C,0.32
11,A20U U58C,0.28
12,A20U U66G,0.26
13,A20U U66A,0.3
14,A20U U66C,0.28
15,A20G U74C,1.17
16,A20G U74A,1.19
17,A20G U74G,1.17
18,A20U C27U,0.18
19,A20U C27A,0.27
20,A20U C27G,0.19
21,A20U U78G,0.26
22,A20U U78A,0.43
23,A20U U78C,0.32
24,A20U U67C,0.22

row,Variant,self-cleavage
1,A20U U67G,0.44
2,A20U U67A,1.16
3,A20U C32U,0.3
4,A20U C32A,0.18
5,A20U G46U,0.18
6,A20U G46A,0.07
7,A20U U72G,0.13
8,A20U U72A,0.25
9,A20U U72C,0.34
10,A20U C59G,0.24
11,A20G U69A,0.34
12,A20G U69C,0.5
13,A20G U69G,0.42
14,A20U A56U,0.25
15,A20U A56C,0.54
16,A20U A56G,0.25
17,A20U U80A,0.45
18,A20U U80C,0.37
19,A20U C34U,0.34
20,A20G U51A,0.8
21,A20G U51G,0.82
22,A20G U51C,0.85
23,A20U A57U,0.58
24,A20U A57G,0.23

row,Variant,self-cleavage
1,A20U G24U,0.08
2,A20U G24C,0.4
3,A20U G24A,0.09
4,A20U C37U,0.21
5,A21C,0.24
6,A20G U54A,0.97
7,A20G U54G,0.52
8,A20G U54C,0.88
9,A21C A45G,0.41
10,A20G U43G,0.44
11,A20G U43A,1.05
12,A20G U43C,0.4
13,A20U U41G,0.23
14,A20U U41C,0.28
15,A20U U41A,0.3
16,A20G U80C,1.03
17,A20G U80A,1.03
18,A20G U80G,1.14
19,A21C A35G,0.39
20,A20U A75G,0.2
21,A20U A75U,0.28
22,A20G U48G,0.31
23,A20G U48A,0.38
24,A20G U48C,0.4

row,Variant,self-cleavage
1,A20G U67G,0.25
2,A20G U67A,0.55
3,A20G U67C,1.01
4,A20U C38A,0.1
5,A20U C38U,0.42
6,A20U C44A,0.27
7,A20G U49G,0.28
8,A20G U49A,0.34
9,A20G U49C,0.31
10,A20U A45C,0.12
11,A20U A45U,0.14
12,A20U A45G,0.28
13,A20U C68U,0.28
14,A20U C29U,0.15
15,A20U G70A,0.17
16,A20U G70U,0.15
17,A20U,0.33
18,A20U U76C,0.36
19,A20U U76A,0.25
20,A20U C71A,0.17
21,A20U A77C,0.25
22,A20U A77G,0.39
23,A20U A77U,0.28
